Patent US20070128672A1 (ST VINCENT S HOSPITAL SYDNEY, published 2007)

Target: tetanus toxoid (UniProt P04958 2-1315)
Assay: ELISA, crude Fab supernatant, detected with 9E10

Chain of tetanus toxoid (P04958 2-457 limits assumed, chain 1 of 2): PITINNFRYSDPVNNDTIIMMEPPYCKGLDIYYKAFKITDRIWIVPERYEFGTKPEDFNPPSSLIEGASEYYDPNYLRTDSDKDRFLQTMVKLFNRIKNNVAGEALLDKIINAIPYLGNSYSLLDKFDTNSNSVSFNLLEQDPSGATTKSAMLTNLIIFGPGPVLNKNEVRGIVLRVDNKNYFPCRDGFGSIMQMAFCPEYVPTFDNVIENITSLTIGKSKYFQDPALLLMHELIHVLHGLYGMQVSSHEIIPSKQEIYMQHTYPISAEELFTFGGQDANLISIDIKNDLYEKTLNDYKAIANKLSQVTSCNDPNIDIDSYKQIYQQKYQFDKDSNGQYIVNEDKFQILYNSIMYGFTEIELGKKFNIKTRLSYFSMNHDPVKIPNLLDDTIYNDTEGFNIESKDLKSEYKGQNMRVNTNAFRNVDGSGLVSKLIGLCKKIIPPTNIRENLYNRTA
Chain of tetanus toxoid (P04958 458-1315 limits assumed, chain 2 of 2): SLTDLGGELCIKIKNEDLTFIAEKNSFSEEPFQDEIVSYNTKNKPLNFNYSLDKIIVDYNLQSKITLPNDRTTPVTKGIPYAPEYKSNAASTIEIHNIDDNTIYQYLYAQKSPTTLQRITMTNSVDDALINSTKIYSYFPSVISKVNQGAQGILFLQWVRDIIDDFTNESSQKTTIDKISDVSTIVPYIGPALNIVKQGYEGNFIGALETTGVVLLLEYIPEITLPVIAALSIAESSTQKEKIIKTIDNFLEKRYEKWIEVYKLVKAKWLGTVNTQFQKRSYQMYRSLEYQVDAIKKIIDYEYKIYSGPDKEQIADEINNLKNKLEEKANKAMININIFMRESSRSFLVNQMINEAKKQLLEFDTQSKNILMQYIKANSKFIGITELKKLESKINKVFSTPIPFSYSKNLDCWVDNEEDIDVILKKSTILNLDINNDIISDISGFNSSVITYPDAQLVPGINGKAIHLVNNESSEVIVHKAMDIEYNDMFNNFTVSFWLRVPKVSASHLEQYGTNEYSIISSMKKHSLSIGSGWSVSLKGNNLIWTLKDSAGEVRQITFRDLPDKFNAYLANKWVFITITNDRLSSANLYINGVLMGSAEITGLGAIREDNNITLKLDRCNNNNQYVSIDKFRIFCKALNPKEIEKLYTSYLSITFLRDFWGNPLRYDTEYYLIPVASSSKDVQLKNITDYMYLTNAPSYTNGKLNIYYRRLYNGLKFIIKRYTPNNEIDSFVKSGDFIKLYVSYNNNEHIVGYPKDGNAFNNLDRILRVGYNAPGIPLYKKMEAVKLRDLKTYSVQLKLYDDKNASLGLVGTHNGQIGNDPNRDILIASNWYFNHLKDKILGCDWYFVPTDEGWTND

Binder	binding result
Fab clone 163.1 (Fab, V domains shown, myc tag on the C terminus of the heavy chain) VH: VQLLEQSGAEMKRPGASVTISCQASRQTFSGQYIHWVRQAPGQGLEWMGVINPSGGSANYAPSFQGRLSMSRDASTNTVYMKLSSLTSEDTAVYYCLSQALKYWGQGTLVAVSS VL: AAELTQSPDSLAVSLGERATINCKSNQSVLYNSNSKNYLAWYQQKPGQPPKLLIYWASTRESGVPDRFSGSGSGTDFTLTITSLQAEDVAVYYCQQYFSSPYTFGQGTKLEIK	no binding (tested: antigen coated at 1 µg/ml)
Fab clone 163.5 (Fab, V domains shown) VH: VQLLEQSGAEVKRPGASVTISCQASRQDFSGQYIHWVRQAPGQGFEWMGIINPSGGSANYAPKFKGRLTMSRDSSTDTVYMTLTSLTSEDTAVYYCLLQALKHWGQGTLVAVSS VL: AAELTQSPDSLAVALGERATINCKSSQSVLYSLNNKNYLAWYQQKPGQPPKLLIHWASTRESGVPDRFSGSGSETDFTLTISSLQAEDVAVYYCQQYYTTPYTFGQGTKLEIK	no binding (tested: antigen coated at 1 µg/ml)
Fab clone 163.17 (Fab, V domains shown, Human IgG1 kappa Fab (MCO1 vector, soluble from E. coli HB2151), myc tag on the C terminus of the heavy chain) VH: VQLLEQSGAEVKRPGASVTISCRASRQDFSGQYIHWVRQAPGQGFEWMGIINPSGGSANYAPKFKGRLTMSRDSSTETVYMTLTSLTSEDTAVYYCLLQALKHWGQGTLVGPSS VL: not shown	no binding (tested: antigen coated at 1 µg/ml)
Fab clone 163.24 (Fab, V domains shown, Human IgG1 kappa Fab (MCO1 vector, soluble from E. coli HB2151), myc tag on the C terminus of the heavy chain) VH: VQLLEQSGAEVKRPGASVTISCQASRQNFSGQYIHWVRQAPGQGLEWMGIINPSGGSANYAPRFKGRLSMSRDSSTDTAYLTLTSLTSEDTAVYFCLLQSLKHWGQGTLVAVSS VL: not shown	no binding (tested: antigen coated at 1 µg/ml)
